In test [1] the target is cell surface associated CCR5 (CF2Th-CCR5 cells) (UniProt P51681). The test is described as follows: flow cytometry on CF2Th-CCR5 cells, anti-CCR5 mAb 5C7, cells preincubated with sCD4 (1 µg/ml). In general terms: A flow cytometer gives signals particle by particle.
Test [2] shares this target.
Test [3] shares this target. The experiment in a line: flow cytometry on CF2Th-CCR5 cells, anti-CCR5 mAb 5C7, cells preincubated with gp140 + sCD4.
Test [4] shares this target. The test is described as follows: flow cytometry on CF2Th-CCR5 cells, anti-CCR5 mAb 5C7, no ligand, background subtracted.

Where “and” joins values, the source holds several entries; their conditions need not be identical. Identical values can stand only once. Like-named read-outs stand apart in the source and are kept apart here.

Sequence of UniProt P51681 (P51681 whole entry): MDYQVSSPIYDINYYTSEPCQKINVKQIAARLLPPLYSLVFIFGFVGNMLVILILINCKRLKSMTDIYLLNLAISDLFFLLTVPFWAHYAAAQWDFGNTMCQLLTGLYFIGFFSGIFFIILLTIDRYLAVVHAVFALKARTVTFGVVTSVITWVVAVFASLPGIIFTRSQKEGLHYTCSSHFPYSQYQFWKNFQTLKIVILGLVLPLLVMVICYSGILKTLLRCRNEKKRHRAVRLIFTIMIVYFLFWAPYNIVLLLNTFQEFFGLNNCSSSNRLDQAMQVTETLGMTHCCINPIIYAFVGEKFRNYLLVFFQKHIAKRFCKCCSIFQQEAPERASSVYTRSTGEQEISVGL

Turning to anti-CCR5 mAb 5C7 (antibody), the geometric mean of fluorescence intensity (arbitrary units) in test [1] is 1300; in test [2], 1200 and 1100; in test [3] it was 370; in test [4] it was 1100.

“two-domain soluble CD4 (sCD4) (from UniProt P01730 26-208) (receptor)” had a geometric mean of fluorescence intensity (arbitrary units) in test [2] of 20.

Values taken from US20050106160A1.
